{"source": "patent US7285395B2", "about": "“Stearoyl-CoA desaturase 4 gene” (Wisconsin Alumni Research Foundation, priority 2004, dated 2007)", "molecules": {"B1": {"name": "leptin: recombinant mouse leptin (Amgen, Thousand Oaks, Calif.) (protein, UniProt P41160 22-167, looked up)", "Leptin": "VPIQKVQDDTKTLIKTIVTRINDISHTQSVSAKQRVTGLDFIPGLHPILSLSKMDQTLAVYQQVLTSLPSQNVLQIANDLENLRDLLHLLAFSKSCSLPQTSGLQKPESLDGVLEASLYSTEVVALSRLQGSLQDILQQLDVSPEC"}}, "key": {"[1]": {"tested_on": "ob/ob mice", "assay": "monounsaturated fatty acid content of hearts of leptin-treated ob/ob mice by GLC", "format": "in vivo, mouse", "conditions": "leptin treatment, GLC of total fatty acids", "experimental": "A, SCD activity: Microsomes were prepared from hearts of PBS-treated, ob/ob, ob/ob pair-fed (PF), and leptin-treated (ob/ob-Leptin) mice, and SCD enzyme activity was determined by measuring the incorporation of radioactivity in oleoyl-CoA using [1-^14C]stearoyl-CoA as a substrate. The reaction products were separated by TLC, and the radioactivity was quantitated. Each value represents the mean±S.E. (n=4). B, Levels of monounsaturated fatty acids in the hearts of ob/ob mice: Total fatty acids were extracted from heart of ob/ob mice treated with either leptin or PBS and wild type controls quantitated by GLC as described in the example below. *, p<0.05 versus wt-PBS; #,p<0.05 versus ob/ob-PBS. C, Total RNA was prepared from hearts of PBS or leptin-treated ob/ob mice and used to measure SCD1, SCD2, and SCD4 mRNA levels by quantitative RT-PCR analysis. The fold change relative to that of wild type was calculated after correction for the levels of cyclophilin used as a standard. […]\n(§1) Subcutaneous Leptin Treatment—ob/ob mice were individually caged and allowed to acclimate for a number of days prior to the start of the experiment. […] Body mass and food intake were measured daily. […]\nob/ob mice have a mutation in the leptin gene and are a model of obesity, insulin resistance, and diabetes. […] To determine which SCD isoform(s) accounted for these effects, we measured RNA levels of mSCD1, mSCD2, and mSCD4. […]"}, "[2]": {"tested_on": "SCD", "assay": "SCD enzyme activity in heart microsomes of leptin-treated ob/ob mice", "format": "in vivo, mouse", "conditions": "leptin 12 days, [1-14C]stearoyl-CoA substrate, elevated 3-fold in untreated ob/ob", "experimental": "A, SCD activity: Microsomes were prepared from hearts of PBS-treated, ob/ob, ob/ob pair-fed (PF), and leptin-treated (ob/ob-Leptin) mice, and SCD enzyme activity was determined by measuring the incorporation of radioactivity in oleoyl-CoA using [1-^14C]stearoyl-CoA as a substrate. The reaction products were separated by TLC, and the radioactivity was quantitated. Each value represents the mean±S.E. (n=4). B, Levels of monounsaturated fatty acids in the hearts of ob/ob mice: Total fatty acids were extracted from heart of ob/ob mice treated with either leptin or PBS and wild type controls quantitated by GLC as described in the example below. *, p<0.05 versus wt-PBS; #,p<0.05 versus ob/ob-PBS. C, Total RNA was prepared from hearts of PBS or leptin-treated ob/ob mice and used to measure SCD1, SCD2, and SCD4 mRNA levels by quantitative RT-PCR analysis. The fold change relative to that of wild type was calculated after correction for the levels of cyclophilin used as a standard. Each value represents the mean±S.E. (n=4).\nas §1"}}}
{"molecule": "B1", "values": [{"measurement": "18:1 content of heart", "setting": "[1]", "result": "reduced to levels comparable with those in wild type mice"}, {"measurement": "SCD activity in heart", "setting": "[2]", "result": "completely normalized to wild type levels"}]}
